Test results reported in article PMC5063977 (The Journal of Biological Chemistry, 2016).
Values belong to the molecule of their own block, whether it stands above or below them.

Assays:
[1] = tested on: untransfected HEK-293 cells; test: forskolin-stimulated cAMP accumulation, untransfected HEK-293 cells; type: cell-based, human
[2] = tested on: RAMP-CLR complexes (RAMP1, RAMP2, RAMP3); test: (Ca^2+)i mobilization with inhibitor pretreatment, HEK-293 cells, all RAMP-CLR complexes; type: cell-based, human; conditions: 100 nM YM-254890, 30 min pretreatment
Protocol: FIGURE 8. CLR in combination with each RAMP generates receptors that mobilize (Ca^2+)i release when expressed in HEK-293 cells. (Ca^2+)i mobilization was determined from HEK-293 cells transiently transfected with CLR and RAMP1 (n = 5) (A), RAMP2 (n = 5) (B), and RAMP3 (n = 5) (C). […] Data are expressed as percentage of the maximal (Ca^2+)i release as determined using 10 μM ionomycin. To determine the contribution made by different G proteins to the (Ca^2+)i response, cells were preincubated with either PTX (to inhibit Gαi) or YM-254890 (a selective Gαq inhibitor). All values are means ± S.E. of n individual data sets.
HEK-293 cells, provided by Dr. Jügen Müller (University of Aston), were cultured in DMEM supplemented with 10% heat-inactivated FBS and kept at 37 °C in a humidified 95% air, 5% CO2 incubator. HEK-293S cells (a gift from AstraZeneca) were cultured in DMEM supplemented with 8% heat-inactivated FBS and kept at 37 °C in a humidified 95% air, 5% CO2 incubator. HEK-293 cells were transfected with FuGENE 6 (Roche Applied Science) in accordance with the manufacturer's instructions using a 1:3 (w:v) DNA:FuGENE ratio and a 1:1 ratio of RAMP to CLR. HEK-293S cells were seeded into 96-well poly-D-lysine-coated plates at a density of 15,000 cells/well (determined using a Countess^TM cell counter, Invitrogen) 1 day prior to transfection. HEK-293S cells were transiently transfected as described previously ([38]) using a 1:1 ratio of RAMP to CLR. The transfected cell lines were grown for 24–48 h prior to assaying.
Transfected HEK-293 cells were grown to confluence in black, clear bottomed, 96-well plates. […] Ligands were added robotically using a Mithras LB 940 multimode microplate reader in the range of 10 pM to 1 μM, and fluorescence was determined immediately post-injection with an excitation wavelength set to 485 nm and an emission wavelength set to 535 nm. […] Peak magnitude was calculated using five-point smoothing followed by correction against background fluorescence. […]

[3] = target: RAMP2-CLR complex expressed in HEK-293S cells (human) (UniProt Q16602)
[4] = target: RAMP1-CLR complex expressed in HEK-293 cells (human) (UniProt Q16602)
[5] = target: RAMP3-CLR complex expressed in HEK-293 cells (human) (UniProt Q16602)
[6] = target: RAMP1-CLR complex expressed in HEK-293S cells (human) (UniProt Q16602)
[7] = target: RAMP3-CLR complex expressed in HEK-293S cells (human) (UniProt Q16602)
[8] = target: RAMP2-CLR complex expressed in HEK-293 cells (human) (UniProt Q16602)
[9] = target: RAMP2-CLR complex expressed in HEK-293S cells (human) (UniProt Q16602); remark: listed apart in the source
[10] = target: RAMP1-CLR complex expressed in HEK-293S cells (human) (UniProt Q16602); remark: listed apart in the source
[11] = target: RAMP3-CLR complex expressed in HEK-293S cells (human) (UniProt Q16602); remark: listed apart in the source
[12] = target: RAMP1-CLR heterodimer expressed in S. cerevisiae (human) (UniProt Q16602)
[13] = target: RAMP2-CLR heterodimer expressed in S. cerevisiae (human) (UniProt Q16602)
[14] = target: RAMP3-CLR heterodimer expressed in S. cerevisiae (human) (UniProt Q16602)
[15] = target: RAMP1-CLR complex expressed in HEK-293 cells (human) (UniProt Q16602); remark: listed apart in the source
[16] = target: RAMP3-CLR complex expressed in HEK-293 cells (human) (UniProt Q16602); remark: listed apart in the source
[17] = target: RAMP2-CLR complex expressed in HEK-293 cells (human) (UniProt Q16602); remark: listed apart in the source
[18] = target: RAMP1-CLR complex expressed in HEK-293 cells (human) (UniProt Q16602); remark: listed apart in the source
[19] = target: RAMP3-CLR complex expressed in HEK-293 cells (human) (UniProt Q16602); remark: listed apart in the source
[20] = target: RAMP2-CLR complex expressed in HEK-293 cells (human) (UniProt Q16602); remark: listed apart in the source

Sequence of RAMP2-CLR complex expressed in HEK-293S cells (human) (Q16602 23-461, chain 1 of 2): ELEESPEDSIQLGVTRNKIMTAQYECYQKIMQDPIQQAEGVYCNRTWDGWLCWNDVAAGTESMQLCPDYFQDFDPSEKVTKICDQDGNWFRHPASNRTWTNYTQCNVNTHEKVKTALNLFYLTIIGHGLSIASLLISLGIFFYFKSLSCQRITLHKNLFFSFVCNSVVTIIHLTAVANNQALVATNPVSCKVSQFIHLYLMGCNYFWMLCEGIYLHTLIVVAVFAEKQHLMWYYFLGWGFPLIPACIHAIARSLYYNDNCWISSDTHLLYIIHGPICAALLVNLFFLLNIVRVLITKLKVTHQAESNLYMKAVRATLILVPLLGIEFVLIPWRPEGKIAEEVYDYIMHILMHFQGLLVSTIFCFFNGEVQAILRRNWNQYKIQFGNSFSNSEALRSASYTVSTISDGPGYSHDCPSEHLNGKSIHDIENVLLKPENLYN
Sequence of RAMP2-CLR complex expressed in HEK-293S cells (human) (O60895 43-175, chain 2 of 2, further chain): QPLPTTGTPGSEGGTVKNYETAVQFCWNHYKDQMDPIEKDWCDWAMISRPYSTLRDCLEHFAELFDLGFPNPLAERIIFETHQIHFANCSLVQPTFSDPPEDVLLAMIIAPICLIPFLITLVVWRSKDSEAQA
Sequence of RAMP2-CLR heterodimer expressed in S. cerevisiae (human) (Q16602 23-461, chain 1 of 2): as the sequence (Q16602 23-461, chain 1 of 2) above
Sequence of RAMP2-CLR heterodimer expressed in S. cerevisiae (human) (O60895 43-175, chain 2 of 2, further chain): as the sequence (O60895 43-175, chain 2 of 2, further chain) above
Sequence of RAMP3-CLR complex expressed in HEK-293S cells (human) (Q16602 23-461, chain 1 of 2): as the sequence (Q16602 23-461, chain 1 of 2) above
Sequence of RAMP3-CLR complex expressed in HEK-293S cells (human) (O60896 24-148, chain 2 of 2, further chain): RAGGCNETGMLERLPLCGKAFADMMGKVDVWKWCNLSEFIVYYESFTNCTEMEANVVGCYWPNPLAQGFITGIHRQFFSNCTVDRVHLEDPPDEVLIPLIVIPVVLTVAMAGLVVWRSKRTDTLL
Sequence of RAMP3-CLR complex expressed in HEK-293 cells (human) (Q16602 23-461, chain 1 of 2): as the sequence (Q16602 23-461, chain 1 of 2) above
Sequence of RAMP3-CLR complex expressed in HEK-293 cells (human) (O60896 24-148, chain 2 of 2, further chain): as the sequence (O60896 24-148, chain 2 of 2, further chain) above
Sequence of RAMP1-CLR heterodimer expressed in S. cerevisiae (human) (Q16602 23-461, chain 1 of 2): as the sequence (Q16602 23-461, chain 1 of 2) above
Sequence of RAMP1-CLR heterodimer expressed in S. cerevisiae (human) (O60894 27-148, chain 2 of 2, further chain): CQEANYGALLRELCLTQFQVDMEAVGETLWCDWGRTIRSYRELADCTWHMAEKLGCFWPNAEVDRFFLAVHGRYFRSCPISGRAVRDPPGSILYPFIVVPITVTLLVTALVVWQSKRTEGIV
Sequence of RAMP1-CLR complex expressed in HEK-293S cells (human) (Q16602 23-461, chain 1 of 2): as the sequence (Q16602 23-461, chain 1 of 2) above
Sequence of RAMP1-CLR complex expressed in HEK-293S cells (human) (O60894 27-148, chain 2 of 2, further chain): as the sequence (O60894 27-148, chain 2 of 2, further chain) above
Sequence of RAMP3-CLR heterodimer expressed in S. cerevisiae (human) (Q16602 23-461, chain 1 of 2): as the sequence (Q16602 23-461, chain 1 of 2) above
Sequence of RAMP3-CLR heterodimer expressed in S. cerevisiae (human) (O60896 24-148, chain 2 of 2, further chain): as the sequence (O60896 24-148, chain 2 of 2, further chain) above
Sequence of RAMP1-CLR complex expressed in HEK-293 cells (human) (Q16602 23-461, chain 1 of 2): as the sequence (Q16602 23-461, chain 1 of 2) above
Sequence of RAMP1-CLR complex expressed in HEK-293 cells (human) (O60894 27-148, chain 2 of 2, further chain): as the sequence (O60894 27-148, chain 2 of 2, further chain) above
Sequence of RAMP2-CLR complex expressed in HEK-293 cells (human) (Q16602 23-461, chain 1 of 2): as the sequence (Q16602 23-461, chain 1 of 2) above
Sequence of RAMP2-CLR complex expressed in HEK-293 cells (human) (O60895 43-175, chain 2 of 2, further chain): as the sequence (O60895 43-175, chain 2 of 2, further chain) above

Molecule: C=C[C@@]1(C)CC(=O)[C@]2(O)[C@@]3(C)[C@@H](O)CCC(C)(C)[C@@H]3[C@H](O)[C@H](OC(C)=O)[C@@]2(C)O1 [forskolin, Forskolin]
overall level of cAMP accumulation, forskolin stimulation ([1]; untransfected HEK-293, PTX treated): 16.45 ± 2.4 pmol cell^−1
overall level of cAMP accumulation, forskolin stimulation ([1]; untransfected HEK-293, untreated (no PTX)): 16.57 ± 2.5 pmol cell^−1

Molecule: YM-254890
effect of YM-254890 on (Ca^2+)i mobilization by AM and AM2 ([2]; HEK-293, all RAMP-CLR complexes): abolish all (Ca^2+)i mobilization
effect of YM-254890 on response to CGRP ([2]; HEK-293, all three RAMP-CLR complexes): considerably attenuated

pEC50, (Ca^2+)i mobilization in HEK-293S cells [3]: 7.68 -log10
pKa (operational model of agonism), (Ca^2+)i mobilization in HEK-293S cells [3]: 7.39 -log10
pEC50, (Ca^2+)i mobilization in HEK-293 cells [4]: 7.9 -log10
pKa (operational model of agonism), (Ca^2+)i mobilization in HEK-293 cells [4]: 7.69 -log10
pEC50, (Ca^2+)i mobilization in HEK-293 cells [5]: 8.12 -log10
pKa (operational model of agonism), (Ca^2+)i mobilization in HEK-293 cells [5]: 7.76 -log10
pEC50, (Ca^2+)i mobilization in HEK-293S cells [6]: 7.63 -log10
pKa (operational model of agonism), (Ca^2+)i mobilization in HEK-293S cells [6]: 7.42 -log10
pEC50, (Ca^2+)i mobilization in HEK-293S cells [7]: 8.02 -log10
pKa (operational model of agonism), (Ca^2+)i mobilization in HEK-293S cells [7]: 8.56 -log10
pEC50, (Ca^2+)i mobilization in HEK-293 cells [8]: 7.86 -log10
pKa (operational model of agonism), (Ca^2+)i mobilization in HEK-293 cells [8]: 7.45 -log10
pEC50, cAMP accumulation in HEK-293S cells, with PTX pretreatment [9]: 9.38 -log10
pEC50, cAMP accumulation in HEK-293S cells, without PTX [9]: 9.39 -log10
pEC50, cAMP accumulation in HEK-293S cells, with PTX pretreatment [10]: 8.03 -log10
pEC50, cAMP accumulation in HEK-293S cells, without PTX [10]: 8.13 -log10
pEC50, cAMP accumulation in HEK-293S cells, with PTX pretreatment [11]: 9.49 -log10
pEC50, cAMP accumulation in HEK-293S cells, without PTX [11]: 9.63 -log10
pEC50, yeast growth reporter, GPA1/Gαi chimera strain [12]: 8.38 -log10
pEC50, yeast growth reporter, GPA1/Gαq chimera strain [12]: 7.26 -log10
pEC50, yeast growth reporter, GPA1/Gαs chimera strain [12]: 8.8 -log10
pKa (operational model of agonism), yeast growth reporter, GPA1/Gαi chimera strain [12]: 8.2 -log10
pKa (operational model of agonism), yeast growth reporter, GPA1/Gαq chimera strain [12]: 7.19 -log10
pKa (operational model of agonism), yeast growth reporter, GPA1/Gαs chimera strain [12]: 8.81 -log10
pEC50, yeast growth reporter, GPA1/Gαi chimera strain [13]: 7.91 -log10
pEC50, yeast growth reporter, GPA1/Gαq chimera strain [13]: 7.93 -log10
pEC50, yeast growth reporter, GPA1/Gαs chimera strain [13]: 8.82 -log10
pKa (operational model of agonism), yeast growth reporter, GPA1/Gαi chimera strain [13]: 7.75 -log10
pKa (operational model of agonism), yeast growth reporter, GPA1/Gαq chimera strain [13]: 7.78 -log10
pKa (operational model of agonism), yeast growth reporter, GPA1/Gαs chimera strain [13]: 8.77 -log10
pEC50, yeast growth reporter, GPA1/Gαi chimera strain [14]: 7.89 -log10
pEC50, yeast growth reporter, GPA1/Gαq chimera strain [14]: 7.83 -log10
pEC50, yeast growth reporter, GPA1/Gαs chimera strain [14]: 8.15 -log10
pKa (operational model of agonism), yeast growth reporter, GPA1/Gαi chimera strain [14]: 8 -log10
pKa (operational model of agonism), yeast growth reporter, GPA1/Gαq chimera strain [14]: 7.71 -log10
pKa (operational model of agonism), yeast growth reporter, GPA1/Gαs chimera strain [14]: 8.1 -log10
pEC50, cAMP accumulation in HEK-293 cells, with PTX pretreatment [15]: 8.14 -log10
pEC50, cAMP accumulation in HEK-293 cells, without PTX [15]: 7.93 -log10
pKa (operational model of agonism), cAMP accumulation in HEK-293 cells, with PTX pretreatment [15]: 7.66 -log10
pKa (operational model of agonism), cAMP accumulation in HEK-293 cells, without PTX [15]: 7.67 -log10
pEC50, cAMP accumulation in HEK-293 cells, with PTX pretreatment [16]: 9.1 -log10
pEC50, cAMP accumulation in HEK-293 cells, without PTX [16]: 8.98 -log10
pKa (operational model of agonism), cAMP accumulation in HEK-293 cells, with PTX pretreatment [16]: 8.94 -log10
pKa (operational model of agonism), cAMP accumulation in HEK-293 cells, without PTX [16]: 8.83 -log10
pEC50, cAMP accumulation in HEK-293 cells, with PTX pretreatment [17]: 10.2 -log10
pEC50, cAMP accumulation in HEK-293 cells, without PTX [17]: 10.3 -log10
pKa (operational model of agonism), cAMP accumulation in HEK-293 cells, with PTX pretreatment [17]: 9.83 -log10
pKa (operational model of agonism), cAMP accumulation in HEK-293 cells, without PTX [17]: 10 -log10
pEC50, cAMP accumulation in HEK-293 cells [18]: 7.92 -log10
pKa (operational model of agonism), cAMP accumulation in HEK-293 cells [18]: 7.64 -log10
pEC50, cAMP accumulation in HEK-293 cells [19]: 8.86 -log10
pKa (operational model of agonism), cAMP accumulation in HEK-293 cells [19]: 8.5 -log10
pEC50, cAMP accumulation in HEK-293 cells [20]: 10.3 -log10
pKa (operational model of agonism), cAMP accumulation in HEK-293 cells [20]: 9.95 -log10
Molecule: hAM (peptide)
